Reference: US20220062341A1 (KIRIN, published 2022)

Columns and labels:
[1] = molecular target: CD3E (human, UniProt P07766 23-207); assay: cell-based or functional assay
[2] = molecular target: CD3 subunits (CD3E, CD3G, CD3D, CD3Z) (human, UniProt P07766 23-207; P09693 23-182; P04234 22-171; P20963 22-164); assay: cell-based or functional assay
CD3 subunits (CD3E, CD3G, CD3D, CD3Z), sequence (P07766 23-207, chain 1 of 4): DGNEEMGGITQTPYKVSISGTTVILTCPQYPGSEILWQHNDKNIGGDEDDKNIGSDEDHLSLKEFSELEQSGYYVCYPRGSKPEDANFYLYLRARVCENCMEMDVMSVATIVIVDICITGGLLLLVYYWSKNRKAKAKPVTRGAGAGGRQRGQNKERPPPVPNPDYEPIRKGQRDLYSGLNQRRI
CD3 subunits (CD3E, CD3G, CD3D, CD3Z), sequence (P09693 23-182, chain 2 of 4): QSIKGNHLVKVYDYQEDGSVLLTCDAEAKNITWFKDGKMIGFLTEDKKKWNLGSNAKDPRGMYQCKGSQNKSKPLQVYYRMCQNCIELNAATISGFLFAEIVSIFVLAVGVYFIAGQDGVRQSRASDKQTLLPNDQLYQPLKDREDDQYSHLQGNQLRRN
CD3 subunits (CD3E, CD3G, CD3D, CD3Z), sequence (P04234 22-171, chain 3 of 4): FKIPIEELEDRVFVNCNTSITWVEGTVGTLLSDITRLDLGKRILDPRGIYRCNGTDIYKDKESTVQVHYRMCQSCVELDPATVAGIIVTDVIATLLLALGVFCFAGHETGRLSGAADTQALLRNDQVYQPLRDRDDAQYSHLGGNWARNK
CD3 subunits (CD3E, CD3G, CD3D, CD3Z), sequence (P20963 22-164, chain 4 of 4): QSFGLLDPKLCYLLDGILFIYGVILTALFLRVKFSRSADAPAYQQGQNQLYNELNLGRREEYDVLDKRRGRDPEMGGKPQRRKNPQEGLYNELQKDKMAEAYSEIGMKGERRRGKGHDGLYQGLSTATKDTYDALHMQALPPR

CD3E, sequence (P07766 23-207): as the sequence (P07766 23-207, chain 1 of 4) above

B1: modified TCR ba2 (TCR)
TCR alpha: NIQNPDPAVYQLRDSKSSDKSVCLFTDFDSQTNVSQSKDSDVYITDKTVLDMRSMDFKSNSAVAWSNKSDFACANAFNNSIIPEDTFFPSPESSCDVKLVEKSFETDTNLNFQNLSVIGFRILLLKVAGFNLLMTLRLWSS
TCR beta: EDLKNVFPPEVAVFEPSEAEISHTQKATLVCLATGFYPDHVELSWWVNGKEVHSGVSTDPQPLKEQPALNDSRYCLSSRLRVSATFWQNPRNHFRCQVQFYGLSENDEWTQDRAKPVTQIVSAEAWGRADCGFTSESYQQGVLSATILYEILLGKATLYAVLVSALVLMAMVKRKDSRG
[1]
  CD3E-positive proportion [%] (Avg, n = 2), CD3-stably expressing 293T cells: 84.5%
[2]
  expression of CD3 (CD3-positive proportion), cells differentiated from iPS-derived HPCs (FF-WJs524), Day 21: 50.4%

B2: modified TCR ba8 (TCR)
TCR alpha: DVYITDKTVLDMRSMDFKSNSAVAWSNKSDFACANAFNNSIIPEDTFFPSPESSCDVKLVEKSFETDTNLNFQNLSVIGFRILLLKVAGFNLLMTLRLWSS
TCR beta: EDLKNVFPPEVAVFEPSEAEISHTQKATLVCLATGFYPDHVELSWWVNGKEVHSGVSTDPQPLKEQPALNDSRYCLSSRLRVSATFWQNPRNHFRCQVQFYGLSENDEWTQDRAKPVTQIVSAEAWGRADCGFTSESYQQGVLSATILYEILLGKATLYAVLVSALVLMAMVKRKDSRG
[1]
  CD3E-positive proportion [%] (Avg, n = 2), CD3-stably expressing 293T cells: 90.3%

B3: modified TCR ba9 (TCR)
TCR alpha: KSNSAVAWSNKSDFACANAFNNSIIPEDTFFPSPESSCDVKLVEKSFETDTNLNFQNLSVIGFRILLLKVAGFNLLMTLRLWSS
TCR beta: EDLKNVFPPEVAVFEPSEAEISHTQKATLVCLATGFYPDHVELSWWVNGKEVHSGVSTDPQPLKEQPALNDSRYCLSSRLRVSATFWQNPRNHFRCQVQFYGLSENDEWTQDRAKPVTQIVSAEAWGRADCGFTSESYQQGVLSATILYEILLGKATLYAVLVSALVLMAMVKRKDSRG
[1]
  CD3E-positive proportion [%] (Avg, n = 2), CD3-stably expressing 293T cells: 90.7%
[2]
  expression of CD3 (CD3-positive proportion), cells differentiated from iPS-derived HPCs (FF-WJs524), Day 21: 99.5%

B4: modified TCR ba4 (TCR)
TCR alpha: NIQNPDPAVYQLRDSKSSDKSVCLFTDFDSQTNVSQSKDSDVYITDKTVLDMRSMDFKSNSAVAWSNKSDFACANAFNNSIIPEDTFFPSPESSCDVKLVEKSFETDTNLNFQNLSVIGFRILLLKVAGFNLLMTLRLWSS
TCR beta: VSTDPQPLKEQPALNDSRYCLSSRLRVSATFWQNPRNHFRCQVQFYGLSENDEWTQDRAKPVTQIVSAEAWGRADCGFTSESYQQGVLSATILYEILLGKATLYAVLVSALVLMAMVKRKDSRG
[1]
  CD3E-positive proportion [%] (Avg, n = 2), CD3-stably expressing 293T cells: 10.2%
[2]
  expression of CD3 (CD3-positive proportion), cells differentiated from iPS-derived HPCs (FF-WJs524), Day 21: 38.3%

B5: modified TCR ba7 (TCR)
TCR alpha: SVCLFTDFDSQTNVSQSKDSDVYITDKTVLDMRSMDFKSNSAVAWSNKSDFACANAFNNSIIPEDTFFPSPESSCDVKLVEKSFETDTNLNFQNLSVIGFRILLLKVAGFNLLMTLRLWSS
TCR beta: EDLKNVFPPEVAVFEPSEAEISHTQKATLVCLATGFYPDHVELSWWVNGKEVHSGVSTDPQPLKEQPALNDSRYCLSSRLRVSATFWQNPRNHFRCQVQFYGLSENDEWTQDRAKPVTQIVSAEAWGRADCGFTSESYQQGVLSATILYEILLGKATLYAVLVSALVLMAMVKRKDSRG
[1]
  CD3E-positive proportion [%] (Avg, n = 2), CD3-stably expressing 293T cells: 88.6%

B6: modified TCR ba5 (TCR)
TCR alpha: NIQNPDPAVYQLRDSKSSDKSVCLFTDFDSQTNVSQSKDSDVYITDKTVLDMRSMDFKSNSAVAWSNKSDFACANAFNNSIIPEDTFFPSPESSCDVKLVEKSFETDTNLNFQNLSVIGFRILLLKVAGFNLLMTLRLWSS
TCR beta: FRCQVQFYGLSENDEWTQDRAKPVTQIVSAEAWGRADCGFTSESYQQGVLSATILYEILLGKATLYAVLVSALVLMAMVKRKDSRG
[1]
  CD3E-positive proportion [%] (Avg, n = 2), CD3-stably expressing 293T cells: 48.4%

B7: modified TCR ba6 (TCR)
TCR alpha: NIQNPDPAVYQLRDSKSSDKSVCLFTDFDSQTNVSQSKDSDVYITDKTVLDMRSMDFKSNSAVAWSNKSDFACANAFNNSIIPEDTFFPSPESSCDVKLVEKSFETDTNLNFQNLSVIGFRILLLKVAGFNLLMTLRLWSS
TCR beta: AKPVTQIVSAEAWGRADCGFTSESYQQGVLSATILYEILLGKATLYAVLVSALVLMAMVKRKDSRG
[1]
  CD3E-positive proportion [%] (Avg, n = 2), CD3-stably expressing 293T cells: 47.6%

B8: modified TCR ba3 (TCR)
TCR alpha: NIQNPDPAVYQLRDSKSSDKSVCLFTDFDSQTNVSQSKDSDVYITDKTVLDMRSMDFKSNSAVAWSNKSDFACANAFNNSIIPEDTFFPSPESSCDVKLVEKSFETDTNLNFQNLSVIGFRILLLKVAGFNLLMTLRLWSS
TCR beta: ATLVCLATGFYPDHVELSWWVNGKEVHSGVSTDPQPLKEQPALNDSRYCLSSRLRVSATFWQNPRNHFRCQVQFYGLSENDEWTQDRAKPVTQIVSAEAWGRADCGFTSESYQQGVLSATILYEILLGKATLYAVLVSALVLMAMVKRKDSRG
[1]
  CD3E-positive proportion [%] (Avg, n = 2), CD3-stably expressing 293T cells: 82.3%

B9: full-length TCR (ba1) (TCR)
chain: MLSLLLLLLGLGSVFSAVISQKPSRDICQRGTSLTIQCQVDSQVTMMFWYRQQPGQSLTLIATANQGSEATYESGFVIDKFPISRPNLTFSTLTVSNMSPEDSSIYLCSVDGQGNTGELFFGEGSRLTVLEDLKNVFPPEVAVFEPSEAEISHTQKATLVCLATGFYPDHVELSWWVNGKEVHSGVSTDPQPLKEQPALNDSRYCLSSRLRVSATFWQNPRNHFRCQVQFYGLSENDEWTQDRAKPVTQIVSAEAWGRADCGFTSESYQQGVLSATILYEILLGKATLYAVLVSALVLMAMVKRKDSRGSGSGEGRGSLLTCGDVEENPGPMACPGFLWALVISTCLEFSMAQTVTQSQPEMSVQEAETVTLSCTYDTSESDYYLFWYKQPPSRQMILVIRQEAYKQQNATENRFSVNFQKAAKSFSLKISDSQLGDAAMYFCAYWSNNNARLMFGDGTQLVVKPNIQNPDPAVYQLRDSKSSDKSVCLFTDFDSQTNVSQSKDSDVYITDKTVLDMRSMDFKSNSAVAWSNKSDFACANAFNNSIIPEDTFFPSPESSCDVKLVEKSFETDTNLNFQNLSVIGFRILLLKVAGFNLLMTLRLWSS
[1]
  CD3E-positive proportion [%] (Avg, n = 2), CD3-stably expressing 293T cells: 88.7%
[2]
  expression of CD3 (CD3-positive proportion), cells differentiated from iPS-derived HPCs (FF-WJs524), Day 21: 99.8%
